Biological target: Tom1 (S. cerevisiae HECT ubiquitin ligase), full-length, wild type (S. cerevisiae) (UniProt Q03280)
Test: cryo-EM structure

Chain of UniProt Q03280 (Q03280 whole entry): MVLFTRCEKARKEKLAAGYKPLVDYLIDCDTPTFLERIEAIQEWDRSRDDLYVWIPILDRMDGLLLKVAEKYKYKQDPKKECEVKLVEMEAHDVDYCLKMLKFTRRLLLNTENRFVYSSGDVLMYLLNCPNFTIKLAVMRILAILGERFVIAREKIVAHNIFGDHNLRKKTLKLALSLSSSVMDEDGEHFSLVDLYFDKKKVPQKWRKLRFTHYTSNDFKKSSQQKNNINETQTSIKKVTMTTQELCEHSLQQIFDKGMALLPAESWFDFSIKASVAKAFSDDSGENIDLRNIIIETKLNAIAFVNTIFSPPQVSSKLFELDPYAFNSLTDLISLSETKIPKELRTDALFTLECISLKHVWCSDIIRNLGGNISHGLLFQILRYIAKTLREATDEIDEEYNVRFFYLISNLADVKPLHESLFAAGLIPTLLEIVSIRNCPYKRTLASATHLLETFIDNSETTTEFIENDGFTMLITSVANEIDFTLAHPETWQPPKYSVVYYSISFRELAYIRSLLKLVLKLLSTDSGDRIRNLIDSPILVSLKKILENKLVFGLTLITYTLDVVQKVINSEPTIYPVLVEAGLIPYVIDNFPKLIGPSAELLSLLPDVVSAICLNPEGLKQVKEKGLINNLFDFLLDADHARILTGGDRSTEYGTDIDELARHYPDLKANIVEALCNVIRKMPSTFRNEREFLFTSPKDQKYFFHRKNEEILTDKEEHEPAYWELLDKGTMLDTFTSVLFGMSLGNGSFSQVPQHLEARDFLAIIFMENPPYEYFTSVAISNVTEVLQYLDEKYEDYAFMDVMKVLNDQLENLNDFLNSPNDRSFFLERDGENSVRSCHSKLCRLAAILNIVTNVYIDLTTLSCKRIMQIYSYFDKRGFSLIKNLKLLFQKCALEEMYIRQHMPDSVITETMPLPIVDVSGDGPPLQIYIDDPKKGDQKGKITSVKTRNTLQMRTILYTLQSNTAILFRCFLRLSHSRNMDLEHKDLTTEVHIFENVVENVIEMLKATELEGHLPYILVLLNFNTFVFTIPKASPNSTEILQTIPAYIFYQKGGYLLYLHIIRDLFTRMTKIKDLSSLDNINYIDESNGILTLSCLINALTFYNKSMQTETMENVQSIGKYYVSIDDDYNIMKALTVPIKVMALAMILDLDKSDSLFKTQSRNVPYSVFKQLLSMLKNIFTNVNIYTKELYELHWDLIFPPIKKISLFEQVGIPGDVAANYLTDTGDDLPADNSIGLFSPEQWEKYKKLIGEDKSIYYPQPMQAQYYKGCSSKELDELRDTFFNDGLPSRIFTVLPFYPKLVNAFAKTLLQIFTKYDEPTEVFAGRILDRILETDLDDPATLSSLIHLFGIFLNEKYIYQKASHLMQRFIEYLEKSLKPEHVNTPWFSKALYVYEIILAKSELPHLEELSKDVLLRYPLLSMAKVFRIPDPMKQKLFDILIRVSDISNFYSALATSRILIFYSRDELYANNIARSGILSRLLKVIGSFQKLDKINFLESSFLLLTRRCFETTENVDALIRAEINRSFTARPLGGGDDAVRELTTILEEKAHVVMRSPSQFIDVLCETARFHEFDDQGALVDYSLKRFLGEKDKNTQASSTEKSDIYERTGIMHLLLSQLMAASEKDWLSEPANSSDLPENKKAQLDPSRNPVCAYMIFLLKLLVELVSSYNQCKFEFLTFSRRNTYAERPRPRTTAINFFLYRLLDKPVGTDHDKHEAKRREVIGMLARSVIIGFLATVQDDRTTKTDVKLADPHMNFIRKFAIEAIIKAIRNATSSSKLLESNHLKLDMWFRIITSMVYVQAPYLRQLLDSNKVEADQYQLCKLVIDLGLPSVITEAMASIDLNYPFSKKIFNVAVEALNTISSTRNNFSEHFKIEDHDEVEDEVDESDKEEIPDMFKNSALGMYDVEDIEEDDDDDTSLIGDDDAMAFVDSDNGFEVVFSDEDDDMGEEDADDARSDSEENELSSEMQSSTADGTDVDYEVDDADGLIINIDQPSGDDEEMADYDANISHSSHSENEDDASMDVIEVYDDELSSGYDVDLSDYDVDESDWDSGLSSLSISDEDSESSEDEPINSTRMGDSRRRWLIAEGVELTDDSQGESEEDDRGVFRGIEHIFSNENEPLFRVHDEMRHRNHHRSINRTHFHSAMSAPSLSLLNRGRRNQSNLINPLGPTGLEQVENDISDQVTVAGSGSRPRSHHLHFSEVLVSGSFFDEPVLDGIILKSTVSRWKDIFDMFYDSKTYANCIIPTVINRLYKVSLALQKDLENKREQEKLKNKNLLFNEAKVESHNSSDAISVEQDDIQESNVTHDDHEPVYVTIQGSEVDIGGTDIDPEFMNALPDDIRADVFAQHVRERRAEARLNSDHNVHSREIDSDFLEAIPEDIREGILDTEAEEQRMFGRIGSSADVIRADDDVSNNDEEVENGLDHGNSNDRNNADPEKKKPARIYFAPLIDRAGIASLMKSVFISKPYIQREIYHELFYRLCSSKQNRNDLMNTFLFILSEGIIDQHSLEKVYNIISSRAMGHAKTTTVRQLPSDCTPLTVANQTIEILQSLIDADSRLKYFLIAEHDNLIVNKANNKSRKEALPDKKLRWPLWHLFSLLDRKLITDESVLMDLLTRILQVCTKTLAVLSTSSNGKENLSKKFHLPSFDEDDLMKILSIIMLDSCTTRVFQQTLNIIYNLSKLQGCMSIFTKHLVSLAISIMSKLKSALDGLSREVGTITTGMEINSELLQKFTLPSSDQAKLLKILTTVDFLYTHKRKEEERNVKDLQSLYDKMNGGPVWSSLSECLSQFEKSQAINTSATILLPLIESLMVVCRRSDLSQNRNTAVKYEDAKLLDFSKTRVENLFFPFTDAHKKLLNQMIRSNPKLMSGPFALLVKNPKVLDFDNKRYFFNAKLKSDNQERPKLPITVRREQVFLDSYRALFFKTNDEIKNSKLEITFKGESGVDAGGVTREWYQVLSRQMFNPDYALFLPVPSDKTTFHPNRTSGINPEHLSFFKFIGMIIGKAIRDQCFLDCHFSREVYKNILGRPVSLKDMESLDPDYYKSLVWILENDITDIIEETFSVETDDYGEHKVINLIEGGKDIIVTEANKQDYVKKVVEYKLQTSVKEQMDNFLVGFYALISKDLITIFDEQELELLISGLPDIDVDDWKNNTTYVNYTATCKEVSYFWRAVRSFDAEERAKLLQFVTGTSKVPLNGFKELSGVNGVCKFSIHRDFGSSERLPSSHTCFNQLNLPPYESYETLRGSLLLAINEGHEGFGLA

“ubiquitin (from UniProt P0CG48 1-76) (natural protein)” gave a stoichiometry N of 4.
